# Where no end group is shown, it is not given here. The star is where a group is joined. Palmitoyl = CCCCCCCCCCCCCCCC(=O)*
# B1: F2Pal10 (Pal-Pal-KIHKKGMIKS) (peptide)
# peptide: {Palmitoyl-Palmitoyl}-KIHKKGMIKS
# notes: Pal is printed twice; the text speaks of N-terminal palmitoylation as the last step of the synthesis; also called pepducin; source: synthetic peptide (Fmoc solid phase, purified by preparative RP-HPLC)
# Legend:
# [1] = test system: formyl peptide receptor family (Hs_FPR1, Hs_FPR2, Mm_Fpr1, Mm_Fpr2); assay: Summary of main findings: receptor subtype selectivity and ligand bias across all readouts; parameters: species or system human and mouse; conditions: summary grade of ligand bias relative to WKYMVm; key not given
# Text: To determine ligand bias, a reference ligand is required, that is, “balanced” for the pathways tested.[37] […] We then used measurements of the activity ratio (Log (Emax/EC50)) for each receptor, ligand, and pathway in an attempt to observe any ligand bias (Fig. 6).
# Hs_FPR2 [2] = target: T1, Hs_FPR2 (Homo sapiens, UniProt P25090); assay: ERK1/2 phosphorylation by Western blotting; assay type: cell-based
# T1 construct: expressed in transfected cells
# T1 sequence (P25090 1-351): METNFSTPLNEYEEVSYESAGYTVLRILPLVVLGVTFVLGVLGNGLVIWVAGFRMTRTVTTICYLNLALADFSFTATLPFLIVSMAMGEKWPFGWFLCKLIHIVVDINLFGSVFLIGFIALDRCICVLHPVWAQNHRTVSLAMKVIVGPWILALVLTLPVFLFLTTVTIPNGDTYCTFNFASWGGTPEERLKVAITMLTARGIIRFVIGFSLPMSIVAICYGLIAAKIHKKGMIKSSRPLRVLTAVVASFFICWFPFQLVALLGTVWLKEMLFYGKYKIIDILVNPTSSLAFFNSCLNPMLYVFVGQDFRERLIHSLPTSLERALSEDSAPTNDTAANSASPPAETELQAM
# Procedure: (§1) ERK phosphorylation was detected by Western blotting as previously described.[30] Briefly, HEK293 cells stably expressing FLAG-tagged FPRs were plated into 12-well culture plates until 90% confluent. On the day of the experiment, culture media was replaced with serum-free Dulbecco’s modified Eagle’s medium and incubated for 2 hours before stimulation with the indicated compounds. After 7 minutes, the media was removed and stimulation terminated by the addition of 100 μl sample buffer (0.5% SDS, Tris (pH 6.8), glycerol, at >90 °C).
# (§2) All data were analyzed using GraphPad Prism using the nonlinear regression log(agonist) versus response (3 parameters) function for all assays, except binding, which was analyzed using the One site-FitlogIC50 function. Bias calculations were carried out following IUPHAR guidelines as described,[27]^,[37] and data were presented as the Δ Activity ratio (Log[EmaxB/EC50B])-(Log[EmaxA/EC50A]).
# Mm_Fpr2 [3] = target: T2, Mm_Fpr2 (Mus musculus, UniProt O88536); assay: ERK1/2 phosphorylation by Western blotting; assay type: cell-based
# T2 construct: expressed in transfected cells
# T2 sequence (O88536 1-351): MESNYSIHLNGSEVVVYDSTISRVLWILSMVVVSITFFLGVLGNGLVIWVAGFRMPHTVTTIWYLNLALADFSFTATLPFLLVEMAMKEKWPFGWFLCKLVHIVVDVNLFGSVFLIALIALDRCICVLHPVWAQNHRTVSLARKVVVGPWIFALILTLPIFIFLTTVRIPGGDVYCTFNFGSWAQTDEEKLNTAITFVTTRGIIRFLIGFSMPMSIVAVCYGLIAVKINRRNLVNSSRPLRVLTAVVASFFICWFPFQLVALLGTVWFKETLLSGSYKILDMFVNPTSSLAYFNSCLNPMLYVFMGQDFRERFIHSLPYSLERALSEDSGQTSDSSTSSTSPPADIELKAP
# Procedure: as §1, §2
# Hs_FPR1 [4] = target: T3, Hs_FPR1 (Homo sapiens, UniProt P21462); assay: ERK1/2 phosphorylation by Western blotting; assay type: cell-based
# T3 construct: expressed in transfected cells
# T3 sequence (P21462 1-350): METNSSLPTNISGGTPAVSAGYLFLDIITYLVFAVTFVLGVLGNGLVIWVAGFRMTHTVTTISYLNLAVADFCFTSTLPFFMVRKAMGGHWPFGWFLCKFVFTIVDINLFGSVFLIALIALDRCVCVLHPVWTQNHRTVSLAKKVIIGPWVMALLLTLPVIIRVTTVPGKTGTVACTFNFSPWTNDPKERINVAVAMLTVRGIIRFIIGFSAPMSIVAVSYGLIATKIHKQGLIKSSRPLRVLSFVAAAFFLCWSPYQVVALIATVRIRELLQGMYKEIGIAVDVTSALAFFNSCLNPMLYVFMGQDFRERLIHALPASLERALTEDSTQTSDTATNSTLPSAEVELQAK
# Procedure: as §1, §2
# Mm_Fpr1 [5] = target: T4, Mm_Fpr1 (Mus musculus, UniProt P33766); assay: ERK1/2 phosphorylation by Western blotting; assay type: cell-based
# T4 construct: expressed in transfected cells
# T4 sequence (P33766 1-364): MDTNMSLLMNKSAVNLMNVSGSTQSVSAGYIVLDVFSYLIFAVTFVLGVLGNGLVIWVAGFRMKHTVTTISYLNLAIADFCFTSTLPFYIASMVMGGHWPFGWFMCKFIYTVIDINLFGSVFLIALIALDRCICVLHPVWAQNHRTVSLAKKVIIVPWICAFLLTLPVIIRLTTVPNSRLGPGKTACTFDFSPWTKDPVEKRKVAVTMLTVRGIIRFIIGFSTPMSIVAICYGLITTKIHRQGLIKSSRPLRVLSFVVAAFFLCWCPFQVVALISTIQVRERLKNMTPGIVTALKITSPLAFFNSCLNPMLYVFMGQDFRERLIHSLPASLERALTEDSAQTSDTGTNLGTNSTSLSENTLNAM
# Procedure: as §1, §2
# Hs_FPR2 [6] = target: T1, Hs_FPR2; assay: BRET receptor-RLuc8 interaction with Arrestin 3-YFP; assay type: cell-based
# Procedure: (§3) BRET1 assays to measure FPR interaction with Venus-mGsi and Arrestin 3-yellow fluorescent protein (YFP) were performed as previously described.[31]^,[32] Briefly, all FPRs C-terminally fused to Renilla Luciferase (donor, RLuc8) were transiently transfected along with either Venus-mGsi or YFP-Arrestin 3 (acceptor) at a ratio of 1:4. 24 hours post transfection, cells were replated into white-walled, 96-well plates and cultured for a further 24–48 hours. On the day of experimentation, growth media was aspirated and replaced with 80 μl Hanks Buffered Saline Solution and equilibrated for 30 minutes. Coelenterazine h was added to each well to a final concentration of 5 μM for 5 minutes before the addition of each compound, and the plate was incubated for a further 10 minutes at 37 °C before being read on a ClarioStar Plus, with luminescence measured at 480/20 nm (donor) and 530/20 (acceptor). The BRET ratio (acceptor/donor) was determined, and the background (untreated) subtracted to give the N-BRET value.
# as §2
# Mm_Fpr2 [7] = target: T2, Mm_Fpr2; assay: as above; assay type: cell-based
# Procedure: as §3, §2
# Hs_FPR1 [8] = target: T3, Hs_FPR1; assay: as above; assay type: cell-based
# Procedure: as §3, §2
# Mm_Fpr1 [9] = target: T4, Mm_Fpr1; assay: as above; assay type: cell-based
# Procedure: as §3, §2
# FPR1 = conditions: at 100 nM; cited from earlier work
# Mm_Fpr1 [10] = target: T4, Mm_Fpr1; assay: Internalization of FLAG-tagged receptors by flow cytometry; assay type: cell-based; conditions: Mm_Fpr1, 30 min, relative to 1 μM WKYMVm
# Procedure: Internalization of FPRs was measured by flow cytometry.[30] Briefly, cells were incubated with Alexa Fluor 657 conjugated M1 antiflag antibody (Sigma-Aldrich Cat# F3040, RRID:AB_439712) for 30 minutes at 37 °C to label surface receptors. Cells were then incubated with the indicated concentration of ligand before washing in PBS/0.04% EDTA to remove any remaining surface antibody. Remaining fluorescence was then measured using flow cytometry on either a BD FACScalibur or Attune, recording 5000 gated events. […] As a control, some samples were left untreated, and “strip only” was measured as a readout of constitutive endocytosis, and this value was subtracted from the data. Vehicle control (0.1% DMSO) had no effect on internalization of receptors.
# as §2
# Hs_FPR2 [11] = target: T1, Hs_FPR2; assay: BRET receptor-RLuc8 interaction with Venus-mGsi; assay type: cell-based
# Procedure: as §3, §2
# Mm_Fpr2 [12] = target: T2, Mm_Fpr2; assay: BRET receptor-RLuc8 interaction with Venus-mGsi; assay type: cell-based
# Procedure: as §3, §2
# Hs_FPR1 [13] = target: T3, Hs_FPR1; assay: BRET receptor-RLuc8 interaction with Venus-mGsi; assay type: cell-based
# Procedure: as §3, §2
# Mm_Fpr1 [14] = target: T4, Mm_Fpr1; assay: BRET receptor-RLuc8 interaction with Venus-mGsi; assay type: cell-based
# Procedure: as §3, §2
# [15] = target: T5, FLAG-tagged human FPR2 (Hs_FPR2) (human, UniProt P25090 1-351); assay: flow cytometry on cells; competition binding: HEK293 cells stably expressing the receptor, lifted in PBS, on ice 90 min with 10 nM K(5/6-FAM)-WKYMVm and increasing unlabeled ligand; mean fluorescence of 5000 cells as % of that without competitor; One site-Fit logIC50
# T5 construct: human formyl peptide receptor 2; also called hFPR2; source: HEK293, stably expressed, on cells; not shown: FLAG, N-terminal, kept
# T5 sequence (looked up): T1 sequence (P25090 1-351)
# [16] = target: T6, FLAG-tagged mouse Fpr2 (Mm_Fpr2) (mouse, UniProt O88536 1-351); assay: as above
# T6 construct: mouse formyl peptide receptor 2; cDNA purchased (ThermoFisher); source: HEK293, stably expressed, on cells; not shown: FLAG, N-terminal, kept
# T6 sequence (looked up): T2 sequence (O88536 1-351)
# [17] = target: T7, FLAG-Hs_FPR2 C-terminally fused to Renilla Luciferase 8 (human, UniProt P25090 1-351); assay: cell-based or functional assay
# T7 sequence (looked up): T1 sequence (P25090 1-351)
# [18] = target: T8, FLAG-Mm_Fpr2 C-terminally fused to Renilla Luciferase 8 (mouse, UniProt O88536 1-351); assay: cell-based or functional assay
# T8 sequence (looked up): T2 sequence (O88536 1-351)
# [19] = target: T5, FLAG-tagged human FPR2 (Hs_FPR2); assay: cell-based or functional assay
# [20] = target: T6, FLAG-tagged mouse Fpr2 (Mm_Fpr2); assay: cell-based or functional assay
# [21] = target: T7, FLAG-Hs_FPR2 C-terminally fused to …; assay: cell-based or functional assay; remark: listed apart in the source
# [22] = target: T8, FLAG-Mm_Fpr2 C-terminally fused to …; assay: cell-based or functional assay; remark: listed apart in the source
# [23] = target: T5, FLAG-tagged human FPR2 (Hs_FPR2); assay: cell-based or functional assay; remark: listed apart in the source
# [24] = target: T6, FLAG-tagged mouse Fpr2 (Mm_Fpr2); assay: cell-based or functional assay; remark: listed apart in the source
molecule,measurement,setting,value
CSCC[C@H](NC(=O)[C@@H](NC(=O)[C@H](CCSC)NC(=O)[C@H](Cc1ccc(O)cc1)NC(=O)[C@H](CCCCN)NC(=O)[C@@H](N)Cc1c[nH]c2ccccc12)C(C)C)C(N)=O [WKYMVM],Bias,[1],No
same,Emax at 1 µM,Hs_FPR2 [2],125%
same,Emax at 1 µM,Mm_Fpr2 [3],128%
same,Emax at 1 µM,Hs_FPR1 [4],141%
same,Emax at 1 µM,Mm_Fpr1 [5],118%
same,Emax,Hs_FPR2 [6],94.8%
same,Emax,Mm_Fpr2 [7],94.3%
same,Emax,Hs_FPR1 [8],75%
same,Emax,Mm_Fpr1 [9],83.1%
same,"arrestin recruitment to FPR1, Pathhunter",FPR1,neither WKYMVM nor ACT-389949 resulted in recruitment
same,agonist-induced internalization (words),Mm_Fpr1 [10],full agonists
same,Emax,Hs_FPR2 [11],79.2%
same,Emax,Mm_Fpr2 [12],87.9%
same,Emax,Hs_FPR1 [13],44.1%
same,Emax,Mm_Fpr1 [14],37.5%
B1,Log IC50,[15],-5.27 log M
same,Max Comp (%),[15],100%
same,Log IC50,[16],-5.38 log M
same,Max Comp (%),[16],100%
same,BRET of receptor-RLuc8 with Venus-mGsi: Emax (% of 1 μM WKYMVm),[17],19.4%
same,BRET of receptor-RLuc8 with Venus-mGsi: Log EC50 (M),[17],-6.78 log M
same,BRET of receptor-RLuc8 with Venus-mGsi: Emax (% of 1 μM WKYMVm),[18],24.2%
same,BRET of receptor-RLuc8 with Venus-mGsi: Log EC50 (M),[18],-6.78 log M
same,"TruPath BRET: dissociation of Gαi2 from β3γ9, EC50 (receptor not given)",[19],130 nM
same,receptor internalization (flow cytometry): Emax (% of 1 μM WKYMVm),[20],12.3%
same,receptor internalization (flow cytometry): Log EC50 (M),[20],-10.5 log M
same,BRET of receptor-RLuc8 with Arrestin 3-YFP: Emax (% of 1 μM WKYMVm),[21],25.5%
same,BRET of receptor-RLuc8 with Arrestin 3-YFP: Log EC50 (M),[21],-6.55 log M
same,BRET of receptor-RLuc8 with Arrestin 3-YFP: Emax (% of 1 μM WKYMVm),[22],33.4%
same,BRET of receptor-RLuc8 with Arrestin 3-YFP: Log EC50 (M),[22],-6.58 log M
same,ERK1/2 phosphorylation (Western blot): Emax (% of 1 μM WKYMVm),[23],80.8%
same,ERK1/2 phosphorylation (Western blot): Log EC50 (M),[23],-7.47 log M
same,ERK1/2 phosphorylation (Western blot): Emax (% of 1 μM WKYMVm),[24],141%
same,ERK1/2 phosphorylation (Western blot): Log EC50 (M),[24],-7.27 log M
